Sequences and labels used below:
B1: U3 small nucleolar RNA-associated protein 6 (Saccharomyces cerevisiae), Q02354 (parent)
chain: MSKTRYYLEQCIPEMDDLVEKGLFTKNEVSLIMKKRTDFEHRLNSRGSSINDYIKYINYESNVNKLRAKRCKRILQVKKTNSLSDWSIQQRIGFIYQRGTNKFPQDLKFWAMYLNYMKARGNQTSYKKIHNIYNQLLKLHPTNVDIWISCAKYEYEVHANFKSCRNIFQNGLRFNPDVPKLWYEYVKFELNFITKLINRRKVMGLINEREQELDMQNEQKNNQAPDEEKSHLQVPSTGDSMKDKLNELPEADISVLGNAETNPALRGDIALTIFDVCMKTLGKHYINKHKGYYAISDSKMNIELNKETLNYLFSESLRYIKLFDEFLDLERDYLINHVLQFWKNDMYDLSLRKDLPELYLKTVMIDITLNIRYMPVEKLDIDQLQLSVKKYFAYISKLDSASVKSLKNEYRSYLQDNYLKKMNAEDDPRYKILDLIISKL
partner: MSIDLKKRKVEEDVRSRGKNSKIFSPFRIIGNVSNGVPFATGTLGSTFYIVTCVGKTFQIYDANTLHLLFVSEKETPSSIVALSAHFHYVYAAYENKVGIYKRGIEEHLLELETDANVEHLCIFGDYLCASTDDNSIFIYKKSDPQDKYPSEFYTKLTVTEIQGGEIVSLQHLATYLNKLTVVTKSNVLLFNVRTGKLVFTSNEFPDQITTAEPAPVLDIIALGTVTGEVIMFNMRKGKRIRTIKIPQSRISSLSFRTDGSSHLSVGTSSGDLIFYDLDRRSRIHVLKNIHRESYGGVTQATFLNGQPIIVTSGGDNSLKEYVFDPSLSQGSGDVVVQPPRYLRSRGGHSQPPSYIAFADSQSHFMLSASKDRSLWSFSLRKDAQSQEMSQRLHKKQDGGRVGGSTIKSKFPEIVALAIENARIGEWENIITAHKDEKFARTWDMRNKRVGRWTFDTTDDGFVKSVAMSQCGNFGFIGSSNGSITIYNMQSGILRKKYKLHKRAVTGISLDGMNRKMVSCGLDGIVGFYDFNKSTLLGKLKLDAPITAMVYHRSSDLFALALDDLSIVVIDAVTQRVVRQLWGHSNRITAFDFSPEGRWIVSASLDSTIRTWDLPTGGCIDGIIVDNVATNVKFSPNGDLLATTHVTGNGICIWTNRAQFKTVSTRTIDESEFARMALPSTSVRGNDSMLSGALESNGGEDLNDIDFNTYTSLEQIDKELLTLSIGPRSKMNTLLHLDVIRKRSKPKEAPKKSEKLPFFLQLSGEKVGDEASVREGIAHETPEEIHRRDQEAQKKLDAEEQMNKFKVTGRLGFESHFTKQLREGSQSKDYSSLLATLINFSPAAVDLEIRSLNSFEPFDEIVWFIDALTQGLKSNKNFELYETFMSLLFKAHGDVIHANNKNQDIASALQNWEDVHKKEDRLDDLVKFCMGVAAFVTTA
B2: U3 small nucleolar RNA-associated protein 6 (Saccharomyces cerevisiae), Q02354 (parent)
chain: B1 chain
partner: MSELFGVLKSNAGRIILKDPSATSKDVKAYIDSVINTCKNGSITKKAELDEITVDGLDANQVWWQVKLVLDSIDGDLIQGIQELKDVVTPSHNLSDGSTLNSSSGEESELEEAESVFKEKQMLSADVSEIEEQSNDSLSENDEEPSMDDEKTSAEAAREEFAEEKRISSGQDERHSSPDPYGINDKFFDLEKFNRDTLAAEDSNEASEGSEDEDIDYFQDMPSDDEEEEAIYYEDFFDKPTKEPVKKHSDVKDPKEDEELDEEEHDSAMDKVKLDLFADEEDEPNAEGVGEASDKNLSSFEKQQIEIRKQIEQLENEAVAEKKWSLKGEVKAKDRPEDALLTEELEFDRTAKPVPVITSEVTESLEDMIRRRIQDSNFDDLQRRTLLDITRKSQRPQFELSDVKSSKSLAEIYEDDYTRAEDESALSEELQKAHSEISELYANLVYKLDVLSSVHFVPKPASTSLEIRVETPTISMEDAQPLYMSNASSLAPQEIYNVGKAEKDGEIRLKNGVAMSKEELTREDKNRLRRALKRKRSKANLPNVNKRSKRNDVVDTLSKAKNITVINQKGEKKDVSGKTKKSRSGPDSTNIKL

The variants in one assay derive from B1. The conditions noted are these: with utp21_yeast UTP21, Q06078.
With MSKTRYYLEQCIPEMDDLVEKGLFTKNEVSLIMKKRTDFEHRLNSRGSSINDYIKYINYESNVNKLRAKRCKRILQVKKTNSLSDWSIQQRIGFIYQRETNKFPQDLKFWAMYLNYMKARGNQTSYKKIHNIYNQLLKLHPTNVDIWISCAKYEYEVHANFKSCRNIFQNGLRFNPDVPKLWYEYVKFELNFITKLINRRKVMGLINEREQELDMQNEQKNNQAPDEEKSHLQVPSTGDSMKDKLNELPEADISVLGNAETNPALRGDIALTIFDVCMKTLGKHYINKHKGYYAISDSKMNIELNKETLNYLFSESLRYIKLFDEFLDLERDYLINHVLQFWKNDMYDLSLRKDLPELYLKTVMIDITLNIRYMPVEKLDIDQLQLSVKKYFAYISKLDSASVKSLKNEYRSYLQDNYLKKMNAEDDPRYKILDLIISKL [G99E], the “effect of a mutation on the interaction” value is “disrupting interaction”.

A further assay covers variants of B2. The conditions noted are these: with mpp10_yeast MPP10, P47083.
On to MSKTRYYLEQCIPEMDDLVEKGLFTKNEVSLIMKKRTDFEHRLNSRGSSINDYIKYINYESNVNKLRAKRCKRILQVKKTNSLSDWSIQQRIGFIYQRETNKFPQDLKFWAMYLNYMKARGNQTSYKKIHNIYNQLLKLHPTNVDIWISCAKYEYEVHANFKSCRNIFQNGLRFNPDVPKLWYEYVKFELNFITKLINRRKVMGLINEREQELDMQNEQKNNQAPDEEKSHLQVPSTGDSMKDKLNELPEADISVLGNAETNPALRGDIALTIFDVCMKTLGKHYINKHKGYYAISDSKMNIELNKETLNYLFSESLRYIKLFDEFLDLERDYLINHVLQFWKNDMYDLSLRKDLPELYLKTVMIDITLNIRYMPVEKLDIDQLQLSVKKYFAYISKLDSASVKSLKNEYRSYLQDNYLKKMNAEDDPRYKILDLIISKL [G99E], for which the “effect of a mutation on the interaction” value is recorded as “decreasing interaction”.

The record behind these values is IntAct's records for PubMed 18725399.
